In the array DNA melting data of Ke et al. one finds Tm data, which are given here for 66 substances.

This data set can be described thus: melting temperature; melt of duplexes. The note with it: sodium 0.0675 M; strand 1 µM.
For orientation: Tm means the temperature at the midpoint of the melting transition. As to “CGACGTGCTTGATGTGCTG+CAGCACATGTAGCACGTCG (((((((((..((((((((+))))))))..)))))))))”, the Tm stood at 51.7 °C.
For “CGACGTGCTTAATGTGCTG+CAGCACATAGAGCACGTCG (((((((((..((((((((+))))))))..)))))))))”, the Tm is 53.1 °C.
For the substance “CGACGTGCGGGATGTGCTG+CAGCACATTGTGCACGTCG ((((((((...((((((((+))))))))...))))))))”, the Tm came to 49.4 °C.
The same measure for “CGACGTGCCAGATGTGCTG+CAGCACATCTAGCACGTCG ((((((((.((((((((((+)))))))))).))))))))”: 56.8 °C; for “CGACGTGCTGAATGTGCTG+CAGCACATCTCGCACGTCG ((((((((...((((((((+))))))))...))))))))”: 50 °C.
As to “CGACGTGCTGAATGTGCTG+CAGCACATCGTGCACGTCG ((((((((...((((((((+))))))))...))))))))”, the Tm amounted to 46.3 °C.
Turning to “CGACGTGCACTATGTGCTG+CAGCACATTTAGCACGTCG ((((((((...((((((((+))))))))...))))))))”, the Tm was 42.7 °C.
The same measure for “CGACGTGCGGTATGTGCTG+CAGCACATTGGGCACGTCG ((((((((...((((((((+))))))))...))))))))”: 49.8 °C; for “CGACGTGCTTAATGTGCTG+CAGCACATATAGCACGTCG (((((((((..((((((((+))))))))..)))))))))”: 54.2 °C; for “CGACGTGCGCAATGTGCTG+CAGCACATCCCGCACGTCG (((((((((..((((((((+))))))))..)))))))))”: 52.5 °C.
Turning to “CGACGTGCACAATGTGCTG+CAGCACATCTAGCACGTCG ((((((((...((((((((+))))))))...))))))))”, the Tm turned out to be 45.9 °C.
With “CGACGTGCCAGATGTGCTG+CAGCACATAGTGCACGTCG ((((((((...((((((((+))))))))...))))))))”, the Tm worked out at 45.6 °C.
Consider “CGACGTGCCGGATGTGCTG+CAGCACATAAAGCACGTCG ((((((((...((((((((+))))))))...))))))))”, for which the Tm was 50.2 °C.
In the case of “CGACGTGCGGAATGTGCTG+CAGCACATGTTGCACGTCG ((((((((...((((((((+))))))))...))))))))”, the Tm was 52.8 °C.
The same measure for “CGACGTGCCAGATGTGCTG+CAGCACATGGGGCACGTCG (((((((((..((((((((+))))))))..)))))))))”: 56.3 °C; for “CGACGTGCCAGATGTGCTG+CAGCACATGTGGCACGTCG ((((((((((.((((((((+)))))))).))))))))))”: 60 °C.
For “CGACGTGCGCAATGTGCTG+CAGCACATTATGCACGTCG ((((((((..(((((((((+)))))))))..))))))))”, the Tm was found to be 52.6 °C.
For “CGACGTGCGACATGTGCTG+CAGCACATGCTGCACGTCG ((((((((..(((((((((+)))))))))..))))))))”, the Tm turned out to be 54.7 °C.
For “CGACGTGCGTAATGTGCTG+CAGCACATCAAGCACGTCG ((((((((.(.((((((((+)))))))).).))))))))”, the Tm came out at 53.4 °C.
The value for “CGACGTGCTGAATGTGCTG+CAGCACATACAGCACGTCG ((((((((((.((((((((+)))))))).))))))))))” was 58.6 °C; that for “CGACGTGCTTTATGTGCTG+CAGCACATTACGCACGTCG ((((((((.(.((((((((+)))))))).).))))))))” was 48.7 °C; that for “CGACGTGCTAGATGTGCTG+CAGCACATAAGGCACGTCG ((((((((...((((((((+))))))))...))))))))” was 51.4 °C.
The value for “CGACGTGCGGCATGTGCTG+CAGCACATTATGCACGTCG ((((((((...((((((((+))))))))...))))))))” was 49 °C.
The value for “CGACGTGCCTTATGTGCTG+CAGCACATGACGCACGTCG ((((((((.(.((((((((+)))))))).).))))))))” was 45.4 °C; that for “CGACGTGCGATATGTGCTG+CAGCACATTGTGCACGTCG ((((((((...((((((((+))))))))...))))))))” was 47.6 °C; that for “CGACGTGCGTAATGTGCTG+CAGCACATCTAGCACGTCG ((((((((...((((((((+))))))))...))))))))” was 54.7 °C.
As for “CGACGTGCCTTATGTGCTG+CAGCACATTGCGCACGTCG ((((((((...((((((((+))))))))...))))))))”, the Tm amounted to 48.4 °C.
On to “CGACGTGCAAGATGTGCTG+CAGCACATGGCGCACGTCG ((((((((...((((((((+))))))))...))))))))”, for which the Tm amounted to 51.3 °C.
As for “CGACGTGCCATATGTGCTG+CAGCACATCAGGCACGTCG (((((((((..((((((((+))))))))..)))))))))”, the Tm is 53.5 °C.
Turning to “CGACGTGCATAATGTGCTG+CAGCACATAACGCACGTCG ((((((((.(.((((((((+)))))))).).))))))))”, the Tm came out at 48.8 °C.
As to “CGACGTGCCTGATGTGCTG+CAGCACATGCAGCACGTCG ((((((((...((((((((+))))))))...))))))))”, the Tm came out at 50.4 °C.
As to “CGACGTGCTTCATGTGCTG+CAGCACATATAGCACGTCG (((((((((..((((((((+))))))))..)))))))))”, the Tm was 51.5 °C.
Take “CGACGTGCCCAATGTGCTG+CAGCACATCTCGCACGTCG ((((((((...((((((((+))))))))...))))))))”: the Tm is 47.6 °C.
Consider “CGACGTGCGTGATGTGCTG+CAGCACATGCAGCACGTCG ((((((((...((((((((+))))))))...))))))))”, for which the Tm stood at 54.1 °C.
On to “CGACGTGCCGAATGTGCTG+CAGCACATTGGGCACGTCG (((((((((.(((((((((+))))))))).)))))))))”, for which the Tm is 59 °C.
For the substance “CGACGTGCATGATGTGCTG+CAGCACATCTTGCACGTCG (((((((((.(((((((((+))))))))).)))))))))”, the Tm stood at 58.3 °C.
Regarding “CGACGTGCCATATGTGCTG+CAGCACATTCAGCACGTCG ((((((((...((((((((+))))))))...))))))))”, the Tm came to 50.2 °C.
In the case of “CGACGTGCAGAATGTGCTG+CAGCACATAAGGCACGTCG ((((((((...((((((((+))))))))...))))))))”, the Tm amounted to 51 °C.
In the case of “CGACGTGCTTTATGTGCTG+CAGCACATGTCGCACGTCG ((((((((...((((((((+))))))))...))))))))”, the Tm was 47.8 °C.
The value for “CGACGTGCAAAATGTGCTG+CAGCACATCCCGCACGTCG ((((((((...((((((((+))))))))...))))))))” was 47.2 °C; that for “CGACGTGCCATATGTGCTG+CAGCACATCCCGCACGTCG ((((((((...((((((((+))))))))...))))))))” was 46.9 °C.
For the substance “CGACGTGCCATATGTGCTG+CAGCACATCACGCACGTCG ((((((((...((((((((+))))))))...))))))))”, the Tm came to 47.6 °C.
“CGACGTGCCCGATGTGCTG+CAGCACATAGTGCACGTCG ((((((((.(.((((((((+)))))))).).))))))))”: the Tm came to 48 °C.
On to “CGACGTGCGGTATGTGCTG+CAGCACATCGAGCACGTCG ((((((((...((((((((+))))))))...))))))))”, for which the midpoint of thermal melting (Tm) is 54 °C.
As for “CGACGTGCTAGATGTGCTG+CAGCACATCGGGCACGTCG ((((((((..(((((((((+)))))))))..))))))))”, the Tm stood at 57 °C.
The same measure for “CGACGTGCATTATGTGCTG+CAGCACATAACGCACGTCG ((((((((.((((((((((+)))))))))).))))))))”: 53.8 °C.
In the case of “CGACGTGCTCCATGTGCTG+CAGCACATCGGGCACGTCG ((((((((.(.((((((((+)))))))).).))))))))”, the Tm came out at 51.2 °C.
Take “CGACGTGCACTATGTGCTG+CAGCACATGATGCACGTCG (((((((((..((((((((+))))))))..)))))))))”: the Tm worked out at 48.8 °C.
The same measure for “CGACGTGCGTAATGTGCTG+CAGCACATATAGCACGTCG ((((((((...((((((((+))))))))...))))))))”: 54.5 °C; for “CGACGTGCAGAATGTGCTG+CAGCACATCGAGCACGTCG ((((((((...((((((((+))))))))...))))))))”: 50.3 °C.
In the case of “CGACGTGCCTGATGTGCTG+CAGCACATACAGCACGTCG ((((((((...((((((((+))))))))...))))))))”, the Tm turned out to be 50.8 °C.
As for “CGACGTGCGTCATGTGCTG+CAGCACATCCAGCACGTCG ((((((((...((((((((+))))))))...))))))))”, the Tm was found to be 50.7 °C.
For the substance “CGACGTGCACAATGTGCTG+CAGCACATTGAGCACGTCG ((((((((.((((((((((+)))))))))).))))))))”, the Tm amounted to 56.9 °C.
For the substance “CGACGTGCACTATGTGCTG+CAGCACATCTGGCACGTCG ((((((((...((((((((+))))))))...))))))))”, the Tm was determined as 44.2 °C.
Consider “CGACGTGCGGCATGTGCTG+CAGCACATAGAGCACGTCG ((((((((...((((((((+))))))))...))))))))”, for which the Tm is 56.4 °C.
With “CGACGTGCGGGATGTGCTG+CAGCACATCCCGCACGTCG (((((((((((((((((((+)))))))))))))))))))”, the Tm was found to be 67.7 °C.
Take “CGACGTGCGGCATGTGCTG+CAGCACATATAGCACGTCG ((((((((...((((((((+))))))))...))))))))”: the Tm amounted to 54.7 °C.
With “CGACGTGCTGGATGTGCTG+CAGCACATGTCGCACGTCG ((((((((...((((((((+))))))))...))))))))”, the Tm stood at 50.3 °C.
The same measure for “CGACGTGCCCCATGTGCTG+CAGCACATTGAGCACGTCG ((((((((.(.((((((((+)))))))).).))))))))”: 50.1 °C; for “CGACGTGCATGATGTGCTG+CAGCACATATGGCACGTCG ((((((((...((((((((+))))))))...))))))))”: 49.7 °C.
Take “CGACGTGCTGCATGTGCTG+CAGCACATGGCGCACGTCG ((((((((..(((((((((+)))))))))..))))))))”: the Tm was found to be 55.3 °C.
On to “CGACGTGCGAAATGTGCTG+CAGCACATTCTGCACGTCG ((((((((..(((((((((+)))))))))..))))))))”, for which the Tm was determined as 53.7 °C.
Turning to “CGACGTGCTGCATGTGCTG+CAGCACATGACGCACGTCG ((((((((..(((((((((+)))))))))..))))))))”, the Tm was 52.9 °C.
For the substance “CGACGTGCCTGATGTGCTG+CAGCACATGATGCACGTCG ((((((((.(.((((((((+)))))))).).))))))))”, the Tm was 49.4 °C.
As for “CGACGTGCTTTATGTGCTG+CAGCACATACTGCACGTCG ((((((((..(((((((((+)))))))))..))))))))”, the Tm was 50.3 °C.
Consider “CGACGTGCTCTATGTGCTG+CAGCACATGCCGCACGTCG ((((((((...((((((((+))))))))...))))))))”, for which the Tm was determined as 48.2 °C.
